This note sets out measurements from patent publication US20200071687.

The target in series [1] is T1, RNase A, P61823.
T1 chain: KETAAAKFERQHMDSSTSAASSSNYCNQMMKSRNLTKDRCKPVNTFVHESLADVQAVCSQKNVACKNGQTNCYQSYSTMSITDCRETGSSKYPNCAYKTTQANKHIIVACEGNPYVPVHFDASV

Series [2] deals with catalase.
Series [3] addresses restriction enzyme Ase I.

B1: Subtilisin Carlsberg variant B24 (protein)
chain: AQTVPYGIPLIKADKVQAQGFKNVKVAVLDTGIQASHPDLNVVGGASFVAGEAYNTDGNGHGTHVAGTVAALGNTTGVLGVAPSVSLYAVKVLNSSGSGSYSGIVSGIEWATTNGMDVINMSLGGASGSTAMKQAVDNAYAKGVVVVAAGNSGSSGNTNTIGYPAKYDSVIAVGAVDSNSNRASFSSVGAELEVMAPGAGYSTYPTNTYATLNGTSMASPHVAGAAALIMSKHPNLSASQVRNRLSSTATYLGSSFYYGKGLINVEAAAPHHHHH
B1: in series [1], the “degradation of RNaseA, 1 hour at 37° C. (SDS-PAGE, Coomassie)” value is “both the subtilisin B24 variant and proteinase K can degrade RNaseA”; the “digestion of the substrate protein in the presence of detergents (SDS-PAGE, Coomassie)” value is “can digest catalase (FIG. 11A) and RNAase (FIG. 11B) up to at least a 2.0% SDS concentration; catalase (FIG. 11C) and RNAase (FIG. 11D) up to at least a 2.0% Triton X-100 concentration; and RNAase (FIG. 11E) up to at least a 2% CTAB concentration”. Moreover, the “digestion of the substrate protein in the presence of detergents (SDS-PAGE, Coomassie)” value in series [2] was “can digest catalase (FIG. 11A) and RNAase (FIG. 11B) up to at least a 2.0% SDS concentration; catalase (FIG. 11C) and RNAase (FIG. 11D) up to at least a 2.0% Triton X-100 concentration”. Moreover, the “digestion of Ase I, 1 hour at 37° C. (SDS-PAGE, Coomassie)” value in series [3] is “subtilisin B24 variant can digest Ase I in one hour at 37 °C”.

B2: proteinase K (protein)
chain: AAQTNAPWGLARISSTSPGTSTYYYDESAGQGSCVYVIDTGIEASHPEFEGRAQMVKTYYYSSRDGNGHGTHCAGTVGSRTYGVAKKTQLFGVKVLDDNGSGQYSTIIAGMDFVASDKNNRNCPKGVVASLSLGGGYSSSVNSAAARLQSSGVMVAVAAGNNNADARNYSPASEPSVCTVGASDRYDRRSSFSNYGSVLDIFGPGTSILSTWIGGSTRSISGTSMATPHVAGLAAYLMTLGKTTAASACRYIADTANKGDLSNIPFGTVNLLAYNNYQA
Regarding B2, the “degradation of RNaseA, 1 hour at 37° C. (SDS-PAGE, Coomassie)” value in series [1] is “both the subtilisin B24 variant and proteinase K can degrade RNaseA”. Moreover, the “digestion of Ase I, 1 hour at 37° C. (SDS-PAGE, Coomassie)” value in series [3] is listed as “while Proteinase K cannot”.
